From US20250127904A1, “SIGLEC LIGANDS, CONJUGATES, AND METHODS OF USE THEREOF” (Osprey Biopharmaceuticals, Inc., priority 2023, published 2025) come the findings set out here.

The subject of one series is C57BL/6 mice. In words: In vivo anti-drug antibody (ADA) titers in mice. More on the design: species or system mouse. The note with it: 4 mg/kg subcutaneous, day 20. As for the experimental part: Adalimumab and Adalimumab-Siglec Ligand conjugates were prepared as described in Example 4. The Adalimumab-Siglec ligand was conjugated by maleimide coupling to engineered cysteine residue L443C in the heavy chain constant region.
To evaluate the production of antibodies specific to adalimumab and/or adalimumab-Siglec Ligand conjugates, C57BL/6 mice were immunized through subcutaneous injection with adalimumab or CD22 ligand-conjugated adalimumab. On study day −1, animals were randomized into treatment groups based on body weight. On study day 0, animals were bled for baseline serum and then injected subcutaneously with adalimumab or the adalimumab-Siglec Ligand conjugate. The individual antigens were prepared by making antigen solution in sterile PBS pH 7.4. […]
ADA assays were performed on 96-well assay plates (Nunc Plates, Black 96-Well Immuno Plates, Thermo Scientific, Cat. No. 437111) coated with antigen, as follows. […] The excitation and emission settings for the QuantaBlu Fluorogenic Peroxide Substrates are 325 nm and 420 nm and the relative florescence units were measured using a SpectraMax plate reader. […] The titer cut point was determined by calculating the mean of the naïve, untreated mice and adding twice the standard deviation of the untreated samples.

A short description of series [1]: Pharmacokinetic monitoring in mice after single subcutaneous administration. It counts as in vivo, mouse. The following applies: C57BL/6 mice, single subcutaneous dose 4 mg/kg. As for the experimental part: Pharmacokinetic monitoring was also carried out in the same C57BL/6 mice following a single subcutaneous administration of adalimumab or the SigL-conjugated adalimumab antibodies. Animals were bled via the retro-orbital sinus throughout the study under inhaled isoflurane anesthesia at 1 h, 6 h, 1-day, 2-days, 6-days, 13-days, 20 days and 27-days post test-article administration. Whole blood was collected into Microvette K2EDTA capillary collection tube (Sarstedt Inc) and then further processed following manufactures instructions to collect plasma. Levels of adalimumab and SigL-conjugated adalimumab in plasma samples were measured using an AlphaLISA human IgG assay (Perkin Elmer) following manufacturer's protocols.

Adalimumab: the ADA titers result with C57BL/6 mice is “high ADA titers”. Further, in series [1], the clearance result is reported as “significantly increased clearance” and the “time of falling below the limit of quantitation (BLOQ)” value came out at 13 days.
